{"source": "paper PMC3705450", "binders": {"B1": {"name": "PluxC site 1 (dsDNA)", "DNA 1": "TTACTTATTTATAGTGTTACAAATAACATTA", "DNA 2": "TAATGTTATTTGTAACACTATAAATAAGTAA"}, "B2": {"name": "P05222 28 bp (dsDNA)", "DNA 1": "CTAGTACTGACAAAAAAGTTAATATTTT", "DNA 2": "AAAATATTAACTTTTTTGTCAGTACTAG"}, "B3": {"name": "aphA promoter BS* randomized 31mer (dsDNA)", "DNA 1": "TTTACGTTACTTGTTGGTAAATTTTATATAT", "DNA 2": "ATATATAAAATTTACCAACAAGTAACGTAAA"}, "B4": {"name": "P05222 site 31mer (dsDNA)", "DNA 1": "CTAGTACTGACAAAAAAGTTAATATTTTGTT", "DNA 2": "AACAAAATATTAACTTTTTTGTCAGTACTAG"}, "B5": {"name": "P05222 site G to T + T to C (dsDNA)", "DNA 1": "GTGCAACAAAATATTGACTTTTTTGTCAGTAAGGATCCGGTGATTG", "DNA 2": "CAATCACCGGATCCTTACTGACAAAAAAGTCAATATTTTGTTGCAC"}, "B6": {"name": "PluxC site 2 (dsDNA)", "DNA 1": "ACTAATTATAAATAAATCAAACTATAATTAGA", "DNA 2": "TCTAATTATAGTTTGATTTATTTATAATTAGT"}, "B7": {"name": "PluxC site 3 (dsDNA)", "DNA 1": "TTATTTAAATGATATAAATATAAATAACATCA", "DNA 2": "TGATGTTATTTATATTTATATCATTTAAATAA"}}, "test_in_all_cases": "EMSA", "key": {"LuxR [1]": {"target": "T1, LuxR (Vibrio harveyi, UniProt P21308 1-205)", "T1 sequence": "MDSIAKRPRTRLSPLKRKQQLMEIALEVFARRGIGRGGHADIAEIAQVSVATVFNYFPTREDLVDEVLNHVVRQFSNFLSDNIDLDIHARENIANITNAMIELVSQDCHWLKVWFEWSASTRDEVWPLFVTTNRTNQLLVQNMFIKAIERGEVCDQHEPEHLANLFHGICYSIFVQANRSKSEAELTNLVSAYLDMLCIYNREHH"}, "LuxR L139P": {"target": "T2, LuxR L139P (Vibrio harveyi, UniProt P21308 1-205, L139P)", "T2 sequence": "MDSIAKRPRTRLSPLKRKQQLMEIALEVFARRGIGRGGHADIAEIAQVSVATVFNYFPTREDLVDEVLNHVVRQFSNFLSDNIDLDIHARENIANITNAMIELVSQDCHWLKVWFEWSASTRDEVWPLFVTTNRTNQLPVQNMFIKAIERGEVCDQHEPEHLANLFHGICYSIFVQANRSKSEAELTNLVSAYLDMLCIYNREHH"}, "LuxR N55I [2]": {"target": "T3, LuxR N55I (Vibrio harveyi, UniProt P21308 1-205, N55I)", "T3 sequence": "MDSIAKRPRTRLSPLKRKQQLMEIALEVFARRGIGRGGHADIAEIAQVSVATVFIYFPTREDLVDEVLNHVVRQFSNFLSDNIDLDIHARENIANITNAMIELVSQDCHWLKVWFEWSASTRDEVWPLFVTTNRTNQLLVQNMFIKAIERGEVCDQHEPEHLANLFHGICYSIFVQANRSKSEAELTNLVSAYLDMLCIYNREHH"}, "LuxR T52M/I24V [3]": {"target": "T4, LuxR T52M/I24V (Vibrio harveyi, UniProt P21308 1-205, T52M;I24V)", "T4 sequence": "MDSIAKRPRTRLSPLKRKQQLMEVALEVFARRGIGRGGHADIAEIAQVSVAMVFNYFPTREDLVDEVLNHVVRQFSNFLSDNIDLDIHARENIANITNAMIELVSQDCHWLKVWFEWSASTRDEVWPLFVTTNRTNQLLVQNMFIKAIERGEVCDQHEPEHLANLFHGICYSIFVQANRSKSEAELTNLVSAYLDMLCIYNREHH"}, "LuxR [4]": {"target": "T1, LuxR", "remark": "listed apart in the source"}, "LuxR [5]": {"target": "T1, LuxR", "remark": "listed apart in the source"}, "LuxR [6]": {"target": "T1, LuxR", "remark": "listed apart in the source"}, "LuxR T52M/I24V [7]": {"target": "T4, LuxR T52M/I24V", "remark": "listed apart in the source"}, "LuxR [8]": {"target": "T1, LuxR", "remark": "listed apart in the source"}, "LuxR N55I [9]": {"target": "T3, LuxR N55I", "remark": "listed apart in the source"}}, "note": "Where two headings read alike, the source gives them in different places."}
{"binder": "B1", "values": [{"measurement": "binding result", "setting": "LuxR [1]", "result": "binds"}, {"measurement": "binding result", "setting": "LuxR L139P", "result": "binds"}, {"measurement": "binding result", "setting": "LuxR N55I [2]", "result": "binds"}, {"measurement": "binding result", "setting": "LuxR T52M/I24V [3]", "result": "no binding"}]}
{"binder": "B2", "values": [{"measurement": "binding result", "setting": "LuxR [4]", "result": "binds"}]}
{"binder": "B3", "values": [{"measurement": "binding result", "setting": "LuxR [5]", "result": "no binding"}]}
{"binder": "B4", "values": [{"measurement": "Kd", "setting": "LuxR T52M/I24V [3]", "result": 56.6, "unit": "nM"}, {"measurement": "Kd", "setting": "LuxR [6]", "result": 0.7, "unit": "nM"}]}
{"binder": "B5", "values": [{"measurement": "binding result", "setting": "LuxR T52M/I24V [7]", "result": "binds"}, {"measurement": "binding result", "setting": "LuxR [8]", "result": "binds"}]}
{"binder": "B6", "values": [{"measurement": "binding result", "setting": "LuxR L139P", "result": "binds"}, {"measurement": "binding result", "setting": "LuxR N55I [9]", "result": "no binding"}, {"measurement": "Kd", "setting": "LuxR [6]", "result": 103, "unit": "nM"}]}
{"binder": "B7", "values": [{"measurement": "Kd", "setting": "LuxR [6]", "result": 0.6, "unit": "nM"}]}
